Laboratory results as given in patent publication US20040131610A1.

Molecular target: Fc gamma receptor (Fc(γ)R) on dendritic cells
Experiment: cell-based or functional assay

DC uptake of apoptotic tumor cells: 300%
Substance: monoclonal antibody 3G4 (ATCC PTA 4545)
